Assay results taken from PMC11809415 (2025).

B1: F-tractinopt–mCherry fusion [rat] / F-actin (rabbit skeletal muscle α-actin filaments) [rabbit] (parent complex)
chain 1: APRRSVGELRLLFEARAASAA
chain 2: not shown

Variants of: B1
Assay: high-speed cosedimentation assay (SDS-PAGE densitometry); 2 µM F-tractin-mCherry; high-speed sedimentation, 120,000 g; actin 0-40 µM

Row | Kd [µM] | Variant
1 | 23 | chain 1 R3A

Variants of: B1
Assay: high-speed cosedimentation assay (SDS-PAGE densitometry); 2 µM F-tractin-mCherry; high-speed sedimentation, 120,000 g; point at the highest actin level (40 µM total, about 39 µM free F-actin); read off a plot

Row | response | Variant
2 | ~0.44 fraction of F-tractin bound | chain 1 R3A

Variants of: B1
Assay: high-speed cosedimentation assay (SDS-PAGE densitometry); 2 µM F-tractin-mCherry; high-speed sedimentation, 120,000 g; point at the highest actin level (40 µM total, about 40 µM free F-actin); read off a plot

Row | response | Variant
3 | ~0.06 fraction of F-tractin bound | chain 1 F13A
